In IntAct's records for PubMed 15086341:

B1: Lysine-specific demethylase hairless (Mus musculus), Q61645 (parent)
chain: MESMPSFLKDTPAWEKTAPVNGIVGQEPGTSPQDGLRHGALCLGEPAPFWRGVLSTPDSWLPPGFLQGPKDTLSLVEGEGPRNGERKGSWLGGKEGLRWKEAMLAHPLAFCGPACPPRYGPLIPEHSGGHPKSDPVAFRPLHCPFLLETKILERAPFWVPTCLPPYLMSSLPPERPYDWPLAPNPWVYSGSQPKVPSAFGLGSKGFYHKDPNILRPAKEPLAESGMLGLAPGGHLQQACESEGPSLHQRDGETGAGRQQNLCPVFLGYPDTVPRAPWPSCPPGLVHSLGNIWAGPGSNSLGYQLGPPATPRCPSPGPPTPPGGCCSSHLPAREGDLGPCRKCQDSPEGGSSGPGESSEERNKADSRACPPSHHTKLKKTWLTRHSEQFECPGGCSGKEESPATGLRALKRAGSPEVQGASRGPAPKRPSHPFPGTGRQGARAWQETPETIIGSKAEAEQQEEQRGPRDGRIRLQESRLVDTSCQHHLAGVTQCQSCVQAAGEVGVLTGHSQKSRRSPLEEKQLEEEDSSATSEEGGGGPGPEASLNKGLAKHLLSGLGDRLCRLLRKEREALAWAQREGQGPAMTEDSPGIPHCCSRCHHGLFNTHWRCSHCSHRLCVACGRIAGAGKNREKTGSQEQHTDDCAQEAGHAACSLILTQFVSSQALAELSTVMHQVWAKFDIRGHCFCQVDARVWAPGDGGQQKEPTEKTPPTPQPSCNGDSNRTKDIKEETPDSTESPAEDGAGRSPLPCPSLCELLASTAVKLCLGHDRIHMAFAPVTPALPSDDRITNILDSIIAQVVERKIQEKALGPGLRAGSGLRKGLSLPLSPVRTRLSPPGALLWLQEPRPKHGFHLFQEHWRQGQPVLVSGIQKTLRLSLWGMEALGTLGGQVQTLTALGPPQPTNLDSTAFWEGFSHPETRPKLDEGSVLLLHRTLGDKDASRVQNLASSLPLPEYCAHQGKLNLASYLPLGLTLHPLEPQLWAAYGVNSHRGHLGTKNLCVEVSDLISILVHAEAQLPPWYRAQKDFLSGLDGEGLWSPGSQTSTVWHVFRAQDAQRIRRFLQMVCPAGAGTLEPGAPGSCYLDAGLRRRLREEWGVSCWTLLQAPGEAVLVPAGAPHQVQGLVSTISVTQHFLSPETSALSAQLYHQGASLPPDHRMLYAQMDRAVFQAVKAAVGALQEAK

Variants of: B1
Conditions: with Thrb

| effect of a mutation on the interaction | Variant |
| --- | --- |
| with no effect | D1005N |
